Values quoted from earlier work as cited in patent publication US11358994B2, “Fatty acid modified human epidermal growth factor” (Saint Louis University, priority 2017, dated 2022).

Details: species not stated

For “hEGF: 6 kD protein made of 53 amino acids (SEQ ID NO: 1)”, the half-life in vivo is listed as ~2 min.
